Assay results as given in the supplement of paper PMC10065799, “High-throughput profiling of sequence recognition by tyrosine kinases and SH2 domains using bacterial peptide display” (eLife, 2023).

Legend:
Fyn = Fyn (UniProt P06241); experiment: phosphorylation enrichment, bacterial display (enrichment ratio); higher = better substrate or ligand; peptides without Tyr show the background
AncSZ = experiment: as above
c-Abl (mouse) = experiment: as above
c-Src = experiment: as above
EPHB2 = EPHB2 (UniProt P29323); experiment: as above
Jak2 = Jak2 (UniProt O60674); experiment: as above
Chain of Jak2 (O60674 whole entry, looked up): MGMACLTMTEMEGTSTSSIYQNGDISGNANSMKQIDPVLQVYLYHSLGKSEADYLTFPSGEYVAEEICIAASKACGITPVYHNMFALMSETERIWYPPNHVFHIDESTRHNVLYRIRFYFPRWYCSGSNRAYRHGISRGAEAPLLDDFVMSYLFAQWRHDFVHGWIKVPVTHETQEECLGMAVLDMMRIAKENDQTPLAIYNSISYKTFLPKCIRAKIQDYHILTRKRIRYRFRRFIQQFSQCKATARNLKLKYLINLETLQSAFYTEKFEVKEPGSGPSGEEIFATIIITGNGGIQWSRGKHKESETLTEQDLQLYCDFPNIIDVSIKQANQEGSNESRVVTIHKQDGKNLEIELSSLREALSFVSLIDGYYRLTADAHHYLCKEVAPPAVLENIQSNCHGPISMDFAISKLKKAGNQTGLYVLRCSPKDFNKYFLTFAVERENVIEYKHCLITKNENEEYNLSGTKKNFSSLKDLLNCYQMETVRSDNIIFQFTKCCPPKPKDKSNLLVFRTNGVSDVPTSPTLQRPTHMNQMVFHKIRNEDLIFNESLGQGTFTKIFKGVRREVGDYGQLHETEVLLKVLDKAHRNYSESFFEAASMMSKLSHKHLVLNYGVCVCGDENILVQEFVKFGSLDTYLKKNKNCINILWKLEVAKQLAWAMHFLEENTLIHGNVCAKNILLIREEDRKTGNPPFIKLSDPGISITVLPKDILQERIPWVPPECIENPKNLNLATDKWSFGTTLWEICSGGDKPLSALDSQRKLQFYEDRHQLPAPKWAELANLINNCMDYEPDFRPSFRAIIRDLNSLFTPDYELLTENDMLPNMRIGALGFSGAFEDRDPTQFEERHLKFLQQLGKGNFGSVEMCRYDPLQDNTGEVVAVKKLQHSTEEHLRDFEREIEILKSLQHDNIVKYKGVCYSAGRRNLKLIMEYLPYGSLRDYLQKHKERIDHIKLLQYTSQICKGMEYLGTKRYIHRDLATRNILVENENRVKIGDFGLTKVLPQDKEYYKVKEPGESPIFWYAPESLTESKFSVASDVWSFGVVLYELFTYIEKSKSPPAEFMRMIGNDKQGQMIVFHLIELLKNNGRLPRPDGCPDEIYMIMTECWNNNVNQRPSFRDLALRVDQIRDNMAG

Fes = Fes (UniProt P07332); experiment: as above
Chain of Fes (P07332 whole entry, looked up): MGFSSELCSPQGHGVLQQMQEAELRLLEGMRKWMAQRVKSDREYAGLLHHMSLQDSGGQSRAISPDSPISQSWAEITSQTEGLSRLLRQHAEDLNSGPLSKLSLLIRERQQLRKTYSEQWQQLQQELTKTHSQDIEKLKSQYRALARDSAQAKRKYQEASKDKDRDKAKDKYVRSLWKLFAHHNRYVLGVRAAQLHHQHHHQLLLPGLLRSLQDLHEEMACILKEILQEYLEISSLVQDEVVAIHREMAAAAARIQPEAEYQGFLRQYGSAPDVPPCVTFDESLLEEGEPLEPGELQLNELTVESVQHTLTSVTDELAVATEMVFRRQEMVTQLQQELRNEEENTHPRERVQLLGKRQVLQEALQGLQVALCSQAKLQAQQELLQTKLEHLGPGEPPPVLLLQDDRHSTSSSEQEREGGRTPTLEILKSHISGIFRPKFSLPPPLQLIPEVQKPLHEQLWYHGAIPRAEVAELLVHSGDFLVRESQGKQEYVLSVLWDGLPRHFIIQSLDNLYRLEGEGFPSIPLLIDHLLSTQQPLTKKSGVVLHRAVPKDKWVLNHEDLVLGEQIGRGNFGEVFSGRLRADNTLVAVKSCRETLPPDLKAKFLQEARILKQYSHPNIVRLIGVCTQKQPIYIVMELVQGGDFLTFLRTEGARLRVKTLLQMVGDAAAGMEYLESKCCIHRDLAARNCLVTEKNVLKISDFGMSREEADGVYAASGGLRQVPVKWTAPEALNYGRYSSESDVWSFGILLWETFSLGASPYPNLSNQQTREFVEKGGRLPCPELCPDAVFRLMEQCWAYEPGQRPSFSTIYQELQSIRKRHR

EPHB1 = EPHB1 (UniProt P54762); experiment: as above
FGFR1 = FGFR1 (UniProt P11362); experiment: as above
Hck = Hck (UniProt P08631); experiment: as above
Chain of Hck (P08631 whole entry, looked up): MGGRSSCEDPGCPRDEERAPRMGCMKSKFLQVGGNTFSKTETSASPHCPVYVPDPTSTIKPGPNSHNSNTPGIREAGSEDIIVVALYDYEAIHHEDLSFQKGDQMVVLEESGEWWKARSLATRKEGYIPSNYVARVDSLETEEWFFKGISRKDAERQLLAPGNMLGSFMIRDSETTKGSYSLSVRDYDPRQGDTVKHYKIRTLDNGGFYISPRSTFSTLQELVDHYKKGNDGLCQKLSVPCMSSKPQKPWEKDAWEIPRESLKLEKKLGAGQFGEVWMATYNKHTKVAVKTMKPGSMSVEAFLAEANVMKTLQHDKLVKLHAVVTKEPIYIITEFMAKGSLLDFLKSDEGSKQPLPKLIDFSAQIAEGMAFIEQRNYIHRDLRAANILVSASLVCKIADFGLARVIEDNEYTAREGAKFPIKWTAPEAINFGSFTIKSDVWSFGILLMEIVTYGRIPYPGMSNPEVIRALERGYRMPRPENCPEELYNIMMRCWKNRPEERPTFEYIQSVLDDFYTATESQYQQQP

MERTK = MERTK (UniProt Q12866); experiment: as above
Chain of MERTK (Q12866 whole entry, looked up): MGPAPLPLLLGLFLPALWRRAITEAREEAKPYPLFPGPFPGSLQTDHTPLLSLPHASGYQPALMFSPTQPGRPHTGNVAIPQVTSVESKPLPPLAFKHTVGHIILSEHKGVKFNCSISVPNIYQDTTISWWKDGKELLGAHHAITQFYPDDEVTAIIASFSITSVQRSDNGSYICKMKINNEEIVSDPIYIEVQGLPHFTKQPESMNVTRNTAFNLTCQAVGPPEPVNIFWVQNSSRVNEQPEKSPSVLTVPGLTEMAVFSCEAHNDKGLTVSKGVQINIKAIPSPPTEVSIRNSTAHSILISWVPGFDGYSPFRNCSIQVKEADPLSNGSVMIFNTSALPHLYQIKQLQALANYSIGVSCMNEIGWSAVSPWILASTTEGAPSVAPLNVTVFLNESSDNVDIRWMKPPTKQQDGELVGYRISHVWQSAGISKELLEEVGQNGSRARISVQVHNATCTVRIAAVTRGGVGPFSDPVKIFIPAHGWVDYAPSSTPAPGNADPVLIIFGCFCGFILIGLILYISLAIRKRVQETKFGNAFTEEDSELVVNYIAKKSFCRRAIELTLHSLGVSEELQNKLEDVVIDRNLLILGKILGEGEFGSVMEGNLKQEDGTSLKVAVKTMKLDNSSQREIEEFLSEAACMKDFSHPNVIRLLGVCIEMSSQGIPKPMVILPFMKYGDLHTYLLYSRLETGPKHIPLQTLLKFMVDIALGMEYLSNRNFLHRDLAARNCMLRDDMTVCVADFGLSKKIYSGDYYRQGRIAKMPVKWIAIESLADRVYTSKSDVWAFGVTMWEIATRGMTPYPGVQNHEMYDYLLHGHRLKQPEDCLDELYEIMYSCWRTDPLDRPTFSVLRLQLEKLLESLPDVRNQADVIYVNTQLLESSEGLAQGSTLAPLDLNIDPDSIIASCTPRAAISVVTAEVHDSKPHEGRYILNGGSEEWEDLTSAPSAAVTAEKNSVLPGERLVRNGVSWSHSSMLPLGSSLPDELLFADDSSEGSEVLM

Fer (mouse) = experiment: as above
FGFR3 = FGFR3 (UniProt P22607); experiment: as above
Chain of FGFR3 (P22607 whole entry, looked up): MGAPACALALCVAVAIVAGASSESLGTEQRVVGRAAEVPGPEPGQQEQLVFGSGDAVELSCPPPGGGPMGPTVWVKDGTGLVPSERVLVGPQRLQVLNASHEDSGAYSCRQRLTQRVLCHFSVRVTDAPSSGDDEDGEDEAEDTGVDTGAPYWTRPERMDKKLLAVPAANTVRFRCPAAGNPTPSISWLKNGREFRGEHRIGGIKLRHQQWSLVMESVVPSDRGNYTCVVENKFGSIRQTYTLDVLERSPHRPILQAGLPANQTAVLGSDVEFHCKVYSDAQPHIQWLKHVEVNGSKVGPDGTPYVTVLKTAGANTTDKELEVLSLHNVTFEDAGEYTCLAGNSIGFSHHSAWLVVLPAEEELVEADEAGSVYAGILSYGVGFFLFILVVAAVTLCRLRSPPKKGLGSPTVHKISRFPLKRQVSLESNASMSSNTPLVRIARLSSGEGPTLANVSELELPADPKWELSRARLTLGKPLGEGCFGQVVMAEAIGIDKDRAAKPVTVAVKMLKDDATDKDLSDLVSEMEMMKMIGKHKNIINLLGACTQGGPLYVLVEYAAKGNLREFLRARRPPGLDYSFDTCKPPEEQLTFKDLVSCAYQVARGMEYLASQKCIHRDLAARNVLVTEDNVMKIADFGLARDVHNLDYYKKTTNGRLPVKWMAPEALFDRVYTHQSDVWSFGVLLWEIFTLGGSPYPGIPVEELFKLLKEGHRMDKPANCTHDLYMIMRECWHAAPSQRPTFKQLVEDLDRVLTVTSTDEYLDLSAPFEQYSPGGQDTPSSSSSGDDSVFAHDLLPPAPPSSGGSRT

Grb2 SH2 = Grb2 SH2 (UniProt P62993); experiment: SH2 binding enrichment of the phosphorylated peptide, bacterial display (enrichment ratio); higher = better substrate or ligand; peptides without Tyr show the background
c-Src SH2 = experiment: as above
SHP2-C SH2 = experiment: as above
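Wherever SH2 binding enrichment of the phosphorylated peptide, bacterial display is given: peptide library displayed on the E. coli surface as eCPX fusions, selected cells deep-sequenced, score is each peptide's frequency after selection divided by its frequency in the input.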
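Wherever phosphorylation enrichment, bacterial display is given: 11-residue human phosphosite peptides and single-mutation variants displayed on the E. coli surface, counted by deep sequencing, each peptide's frequency after selection divided by its frequency in the unselected input library; frequency after pTyr selection over input frequency; kinase dosed for 20-30% of maximal phosphorylation in three min.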

Chain of Fyn (P06241 whole entry, looked up): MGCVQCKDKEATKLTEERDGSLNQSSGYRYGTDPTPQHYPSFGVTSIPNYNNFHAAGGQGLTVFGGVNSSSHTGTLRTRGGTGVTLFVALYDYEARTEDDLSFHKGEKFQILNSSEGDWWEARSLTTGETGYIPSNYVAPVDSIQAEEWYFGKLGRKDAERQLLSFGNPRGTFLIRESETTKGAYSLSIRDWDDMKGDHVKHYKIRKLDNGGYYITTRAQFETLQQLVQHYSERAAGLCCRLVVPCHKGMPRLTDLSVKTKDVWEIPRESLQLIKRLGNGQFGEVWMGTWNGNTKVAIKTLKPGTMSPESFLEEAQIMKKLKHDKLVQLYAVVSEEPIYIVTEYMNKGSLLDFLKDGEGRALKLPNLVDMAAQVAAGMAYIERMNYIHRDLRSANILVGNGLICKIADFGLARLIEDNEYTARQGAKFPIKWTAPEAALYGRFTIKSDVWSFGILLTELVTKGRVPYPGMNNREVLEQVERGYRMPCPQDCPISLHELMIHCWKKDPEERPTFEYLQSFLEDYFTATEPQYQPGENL

Sequence | SH2 binding enrichment (Grb2 SH2) | SH2 binding enrichment (c-Src SH2) | SH2 binding enrichment (SHP2-C SH2) | phosphorylation enrichment (Fyn) | phosphorylation enrichment (AncSZ) | phosphorylation enrichment (c-Abl (mouse)) | phosphorylation enrichment (c-Src) | phosphorylation enrichment (EPHB2) | phosphorylation enrichment (Jak2) | phosphorylation enrichment (Fes) | phosphorylation enrichment (EPHB1) | phosphorylation enrichment (FGFR1) | phosphorylation enrichment (Hck) | phosphorylation enrichment (MERTK) | phosphorylation enrichment (Fer (mouse)) | phosphorylation enrichment (FGFR3)
SIIKDYFHRGT [GATM_Y203_A208T] | 0.685 | 0.469 | 0.631 | 0.433 | 0.656 | 0.514 | 0.569 | 0.604 | 0.551 | 0.62 | 0.42 | 0.476 | 0.463 | 0.365 | 0.465 | 0.542
SLDLSYFHTSS [EMD_Y181_P183H_YF] | 0.907 | 0.599 | 0.591 | 0.464 | 0.799 | 0.645 | 0.466 | 0.6 | 1.06 | 0.881 | 0.517 | 0.549 | 0.559 | 0.566 | 0.441 | 0.595
SLKAFYGEDAK [ALDH3A1_Y272_E270A] | 0.891 | 0.68 | 0.663 | 0.416 | 0.603 | 0.562 | 0.489 | 0.369 | 0.58 | 0.724 | 0.395 | 0.433 | 0.456 | 0.332 | 0.417 | 0.538
SLNEGYARDFD [FBP1_Y216] | 1.06 | 0.562 | 0.765 | 0.639 | 1.06 | 0.767 | 0.44 | 0.573 | 0.908 | 0.94 | 0.505 | 0.461 | 0.547 | 0.485 | 0.554 | 0.617
SPFEVYVDKSQ [FLNA_Y373] | 1.02 | 0.685 | 0.697 | 0.477 | 1.08 | 0.581 | 0.481 | 0.515 | 0.99 | 1.27 | 0.669 | 0.493 | 0.499 | 0.388 | 0.499 | 0.726
SPPILYSFYLD [FCRL6_Y239] | 1.28 | 0.882 | 1.14 | 2.03 | 1.31 | 0.736 | 2.74 | 4.22 | 0.775 | 1.05 | 3.28 | 1.42 | 1.57 | 8.22 | 1.37 | 0.924
SPQAHYRLSAF [ADAMTS9_Y100_S96P] | 0.971 | 0.481 | 0.688 | 0.425 | 0.532 | 0.597 | 0.503 | 0.552 | 0.584 | 0.659 | 0.531 | 0.4 | 0.37 | 0.521 | 0.436 | 0.427
SPRDTYSDRIG [CTPS1_Y567_S571I] | 0.844 | 0.438 | 0.617 | 0.453 | 0.445 | 0.411 | 0.406 | 0.5 | 0.374 | 0.605 | 0.516 | 0.379 | 0.471 | 0.416 | 0.358 | 0.494
SQETFYRVSNM [ABCD1_Y181_Q178E_YF] | 0.836 | 0.597 | 0.807 | 0.396 | 0.61 | 0.86 | 0.49 | 0.528 | 0.7 | 0.763 | 0.412 | 0.386 | 0.457 | 0.448 | 0.443 | 0.473
SQQTYCRVSNM [ABCD1_Y181_Y181C] | 0.897 | 1.01 | 0.616 | 0.751 | 0.799 | 0.851 | 0.718 | 1.98 | 0.623 | 0.88 | 3.76 | 0.587 | 1.41 | 0.738 | 0.526 | 0.683
SRVNKYSTAFG [GJB3_Y16_G12R] | 1.02 | 0.896 | 1.3 | 0.371 | 0.571 | 0.584 | 0.383 | 0.347 | 0.644 | 0.633 | 0.426 | 0.383 | 0.344 | 0.406 | 0.499 | 0.489
SSDKVYAHQMD [MLH1_Y379_V384D] | 0.729 | 0.576 | 0.552 | 0.493 | 0.611 | 0.442 | 0.491 | 0.502 | 0.497 | 0.708 | 0.537 | 0.452 | 0.419 | 0.408 | 0.395 | 0.52
SSNLYYRWLTA [CNGA3_Y169] | 0.791 | 0.545 | 0.763 | 2 | 1.04 | 3.22 | 2.87 | 1.91 | 4.69 | 0.897 | 1.52 | 6.93 | 4.9 | 8.61 | 1.98 | 6.24
SSNTEYLSASD [INSR_Y999_P997T] | 0.689 | 0.547 | 0.573 | 0.52 | 0.884 | 0.556 | 0.474 | 0.573 | 0.82 | 0.746 | 0.393 | 0.518 | 0.501 | 0.435 | 0.48 | 0.615
SSSPTYPDLPF [GLI3_Y168] | 0.859 | 0.504 | 0.673 | 0.568 | 0.839 | 0.967 | 0.565 | 0.543 | 0.91 | 0.933 | 0.634 | 0.784 | 0.59 | 0.654 | 0.745 | 0.627
SSWPGYVRPLP [HSPB1_Y54] | 0.97 | 0.741 | 0.654 | 0.52 | 0.774 | 0.54 | 0.491 | 0.423 | 2.22 | 0.648 | 0.48 | 0.491 | 0.485 | 0.407 | 0.459 | 0.458
STAPSYGNPSS [CD19_Y378_G373S] | 0.744 | 0.458 | 0.694 | 0.383 | 0.545 | 0.482 | 0.381 | 0.357 | 0.503 | 0.505 | 0.328 | 0.361 | 0.34 | 0.402 | 0.32 | 0.358
STFVPYEIKVQ [L1CAM_Y784] | 0.85 | 0.552 | 0.726 | 0.538 | 0.906 | 0.678 | 0.393 | 0.512 | 0.805 | 0.996 | 0.564 | 0.506 | 0.475 | 0.338 | 0.527 | 0.629
SVQIVYKPVDL [MAPT_Y627] | 0.951 | 0.515 | 0.845 | 0.4 | 1.17 | 0.689 | 0.464 | 0.499 | 0.891 | 1.12 | 0.698 | 0.409 | 0.455 | 0.376 | 0.467 | 0.65

Now from value to sequence, other results behind:

SH2 binding enrichment (Grb2 SH2) | SH2 binding enrichment (c-Src SH2) | SH2 binding enrichment (SHP2-C SH2) | Sequence | phosphorylation enrichment (Fyn) | phosphorylation enrichment (AncSZ) | phosphorylation enrichment (c-Abl (mouse)) | phosphorylation enrichment (c-Src) | phosphorylation enrichment (EPHB2) | phosphorylation enrichment (Jak2) | phosphorylation enrichment (Fes) | phosphorylation enrichment (EPHB1) | phosphorylation enrichment (FGFR1) | phosphorylation enrichment (Hck) | phosphorylation enrichment (MERTK) | phosphorylation enrichment (Fer (mouse)) | phosphorylation enrichment (FGFR3)
0.856 | 0.676 | 0.679 | SILTVYSKDNY [PANK2_Y400_A398T] | 0.442 | 0.678 | 0.639 | 0.538 | 0.407 | 0.715 | 0.91 | 0.535 | 0.452 | 0.449 | 0.383 | 0.388 | 0.594
0.8 | 0.413 | 0.79 | SKEPFYVRCIK [MYO1D_Y586_YF] | 0.339 | 0.939 | 0.727 | 0.354 | 0.56 | 0.921 | 1.18 | 0.951 | 0.42 | 0.434 | 0.347 | 0.449 | 0.634
0.743 | 0.446 | 0.566 | SLALFYRNVYH [RBL1_Y792_K794N] | 0.419 | 0.923 | 0.576 | 0.381 | 0.433 | 0.869 | 1.25 | 0.511 | 0.603 | 0.524 | 0.382 | 0.45 | 0.741
1.27 | 0.925 | 1.01 | SLLLSYYLIKW [NUP160_Y773_P768S] | 0.456 | 1.12 | 0.882 | 0.587 | 0.539 | 2.23 | 1.24 | 0.673 | 2.51 | 0.499 | 0.649 | 0.47 | 2.09
0.867 | 0.538 | 0.589 | SLTRLCVGENA [NLRP3_Y861_Y861C] | 0.503 | 0.809 | 2.77 | 0.445 | 0.541 | 0.759 | 1 | 0.495 | 0.471 | 0.534 | 0.466 | 0.434 | 0.685
0.962 | 0.638 | 0.86 | SMGMKYLEEKN [ZAP70_Y451] | 0.7 | 0.717 | 0.644 | 0.434 | 0.463 | 0.727 | 0.879 | 0.518 | 0.493 | 0.398 | 0.383 | 0.454 | 0.506
1.17 | 2.13 | 0.725 | SNKLYYQLEQE [PDPR_Y110] | 1.52 | 1.37 | 1.11 | 2.36 | 0.761 | 1.27 | 1.19 | 0.903 | 5.94 | 0.922 | 3.9 | 0.601 | 4.95
0.754 | 0.688 | 0.411 | SNVEQYQAMVT [TPR_Y965] | 0.506 | 0.754 | 0.487 | 0.384 | 0.444 | 0.846 | 0.692 | 0.443 | 0.416 | 0.424 | 0.355 | 0.457 | 0.541
0.869 | 0.378 | 0.551 | SNYRAYATEPH [TNNI3_Y29] | 0.404 | 0.49 | 0.503 | 0.362 | 0.452 | 0.435 | 0.475 | 0.372 | 0.422 | 0.382 | 0.397 | 0.379 | 0.447
2.26 | 0.857 | 2.11 | SRPTQYSSFSC [SPEM2_Y104] | 0.627 | 0.764 | 0.752 | 0.7 | 0.511 | 0.816 | 0.986 | 0.584 | 0.557 | 0.598 | 0.619 | 0.486 | 0.578
0.854 | 0.697 | 0.77 | SRVTQYERDFE [SNX1_Y463] | 0.46 | 0.837 | 0.844 | 0.396 | 0.486 | 0.635 | 0.954 | 0.428 | 0.501 | 0.476 | 0.379 | 0.419 | 0.611
0.721 | 2.42 | 3.04 | SSAAGYACLAY [MVD_Y131] | 0.531 | 0.9 | 0.897 | 0.593 | 0.615 | 1.02 | 1.07 | 0.553 | 0.547 | 0.575 | 0.498 | 0.574 | 0.736
0.915 | 0.615 | 0.709 | STKELYEKFMI | 0.724 | 0.725 | 0.6 | 1.01 | 0.414 | 0.619 | 0.857 | 0.411 | 0.409 | 1.01 | 0.872 | 6.97 | 0.492
0.667 | 0.419 | 0.662 | SVTCTDSPALN [TP53_Y126_Y126D] | 0.447 | 0.975 | 0.847 | 0.427 | 0.564 | 0.958 | 1.13 | 0.6 | 0.491 | 0.474 | 0.351 | 0.567 | 0.805
